From patent US6143507A, “High throughput compatible assay for receptor-TRAF interactions” (Boehringer Ingelheim Pharmaceuticals, Inc., priority 1998, dated 2000)
Residues, ends and D or L forms follow the SMILES beside them.

T1: CD40c-TRAF2 interaction (Homo sapiens, UniProt Q12933)
T1 construct: 1 and 2, respectively; made in house; host or cells: TRAF2(NC)-CA21: Spodoptera frugiperda Sf21 cells (baculovirus); CD40c: Escherichia coli BL21 (DE3)
T1 sequence (Q12933 with tags, fused parts or gaps): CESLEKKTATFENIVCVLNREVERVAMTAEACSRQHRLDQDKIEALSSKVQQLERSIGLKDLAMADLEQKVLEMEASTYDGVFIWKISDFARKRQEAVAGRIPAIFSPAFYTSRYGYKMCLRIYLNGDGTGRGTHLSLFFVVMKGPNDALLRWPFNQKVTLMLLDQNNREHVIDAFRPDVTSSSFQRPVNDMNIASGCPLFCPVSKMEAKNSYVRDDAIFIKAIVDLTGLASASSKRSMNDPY

T2: TRAF2(NC)-CA21 (human)
T2 sequence: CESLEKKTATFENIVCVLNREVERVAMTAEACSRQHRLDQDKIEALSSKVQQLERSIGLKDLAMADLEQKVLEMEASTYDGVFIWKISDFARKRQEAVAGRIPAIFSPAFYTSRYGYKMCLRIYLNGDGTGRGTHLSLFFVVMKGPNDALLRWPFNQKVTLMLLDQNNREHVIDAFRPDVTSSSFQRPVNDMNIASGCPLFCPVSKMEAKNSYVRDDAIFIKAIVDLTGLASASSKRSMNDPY


How the values were obtained:
CD40c-TRAF2 interaction = target: T1, CD40c-TRAF2 interaction; test: Flashplate assay of CD40c-TRAF2 interaction (biotin-CD40c, TRAF2(NC)-CA21, 125I-CA21 Fab); format: binding; conditions: 0.44 μg/ml biotin-CD40c; for IC50: 5 μg/ml TRAF2(NC)-CA21, peptide preincubated with TRAF2(NC)-CA21, read-out: IC50 for inhibition of CD40c-TRAF2 interaction
Experimental: FIG. 2. Peptide antagonists of CD40c-TRAF2 interaction. Streptavidin flashplates were coated with 0.44 μg/ml biotin-CD40c. Stock solutions of peptides were prepared at 1 mg/ml in assay buffer and the pH verified. All peptides were assayed by preincubating with TRAF2(NC)-CA21 at a final peptide concentration of 0.5 mg/ml. Peptides were serially diluted 1.5-fold prior to addition of the TRAF2(NC)-CA21 (5 μg/ml final). Results are means of duplicate points except for the no inhibitor wells (none, closed circles) that are means i standard deviation of 11 replicates. A) Peptides AcPVQET-NH2 (closed squares), AcNTAAPVQET-NH2 (closed triangles), AcNTAAPVQETLH-NH2 (open triangles), CD30.B (AcDVMLSVEEEGKE-NH2, open circles); B) Peptides AcIQET-NH2 (closed squares), AcPIQET-NH2 (closed triangles), AcQEPQEINF-NH2 (open triangles), CD40c (open circles). The maximum signal in B) is less due to a difference in the decay of the ^125 I-Fab.
Significant signal was detectable as low as 0.054 μg/ml biotin-CD40c (FIG. 1). Standard conditions for the assay were selected to be 0.44 μg/ml CD40c and 5 μg/ml TRAF2(NC)-CA21. These conditions provided a signal/noise of eight to ten and a good dynamic range for the detection of inhibitors or enhancers. […] As noted by the manufacturer of the plates, low concentrations of detergents were strong inhibitors of the assay because they removed the streptavidin from the wells. […] The PVQET sequence in the CD40 cytoplasmic domain is essential for signaling through CD40 and is thought to be a core TRAF2 binding sequence. Devergne, O., et al (1996) Mol. Cell. Biol. 16, 7098-7108; Innui, W., et al (1990) Eur. J Immunol. 20, 1747-1753. Therefore several peptides around the PVQET sequence were tested for the ability to compete the CD40c-TRAF2 interaction (FIG. 2A). […] FIG. 2A.
Biotin-CD40c (0.5 μg/ml) was bound to streptavidin-coated 96-well scintillant-embedded plates (Flashplates, New England Nuclear, catalog #15112) overnight at 4° C. in D-PBS, 0.1 mM DTT, 0.01% BSA (100 μl/well). Plates were blocked for 2 hr at room temperature by the addition of Dulbecco's-PBS, 0.1 mM DTT, 1.0% BSA (100 μl/well). In a separate 96-well round bottom polypropylene plate peptide inhibitors were diluted in 40 mM HEPES, pH 7.5, 0.1 M NaCl, 1.0 mM MgCl2, 0.1 mM DTT, 0.01% BSA, and TRAF2(NC)-CA21 was added at a final concentration of 5 μg/ml. Plates were preincubated for 30 min at room temperature. After washing the biotin-CD40c-coated flashplate three times with D-PBS, 0.1 mM DTT, inhibitor-TRAF2(NC)-CA21 mixtures were transferred from the preincubation plate to the washed plate (100 μl/well). Alternatively, after washing the biotin-CD40c-coated flashplates, inhibitors were added directly without TRAF preincubation in a final volume of 50 μl 40 mM HEPES, pH 7.5, 0.1 M NaCl, 1.0 mM MgCl2, 0.1 mM DTT, 0.01% BSA, and 50 μl/well TRAF2(NC)-CA21 (10 μg/ml stock to make a final concentration of 5 μg/ml) was added. Flashplates were incubated for 1 hr at room temperature, washed three times with 40 MM HEPES, pH 7.5, 0.1 M NaCl, 1.0 mM MgCl2, 0.1 mM DTT, and 100 μl/well of [^125 I]CA21 Fab fragment at an adjusted specific activity of 0.08 μCi/well added in […] HEPES, pH […] 7.5, 0.1 M NaCl, 1.0 mM MgCl2, 0.1 mM DTT, 0.1% BSA. After a 1 hr incubation at room temperature plates were sealed and counted in a TopCount scintillation counter (Packard; one minute/well, 2 minute plate delay).

TRAF2(NC)-CA21 (human) = target: T2, TRAF2(NC)-CA21 (human); test: flashplate competition assay, inhibition of TRAF2(NC)-CA21 binding to biotin-CD40c
[1] = system: GST-CD40-TRAF interaction; conditions: cited from earlier work

| Molecule | IC50 (CD40c-TRAF2 interaction) [µM] | IC50 (TRAF2(NC)-CA21 (human)) [µM] | also measured |
| --- | --- | --- | --- |
| CC[C@H](C)[C@H](NC(C)=O)C(=O)N[C@@H](CCC(N)=O)C(=O)N[C@@H](CCC(=O)O)C(=O)N[C@H](C(N)=O)[C@@H](C)O [IQET, AcIQET-NH2] (Ac-IQET-NH2) | ~140 | – | – |
| Ac-PIQET-NH2 [PIQET, AcPIQET-NH2] | ~70 | – | – |
| Ac-PVQET-NH2 [PVQET, AcPVQET-NH2] | ~90 | – | ability to inhibit (compete) CD40c-TRAF2 interaction, in words (CD40c-TRAF2 interaction; 5 μg/ml TRAF2(NC)-CA21, peptides up to 0.5 mg/ml): most potent |
| CD40c (nonbiotinylated CD40c polypeptide) (from UniProt P25942) (receptor) | – | 50 | – |
| Ac-PIQET-NH2 [AcPIQET-NH2] | – | 70 | – |
| CD40c: 62 amino acid human CD40 cytoplasmic domain (amino acids 216-277) expressed in E. coli (protein, also: biotinylated via D-biotinoyl-aminocaproic acid NHS ester, one or two biotin per molecule, sites not given here, 62 amino acid human CD40 cytoplasmic domain (amino acids 216-277) expressed in E. coli) KKVAKKPTNKAPHPKQEPQEINFPDDLPGSNTAAPVQETLHGCQPVTQEDGKESRISVQERQ | ~50 | – | ability to compete for GST-CD40-TRAF interaction [1]: weak ability to compete |
| Ac-IQET-NH2 [AcIQET-NH2] | – | 140 | fold decrease of inhibitory activity against PIQET (TRAF2(NC)-CA21 (human)): 2 fold |
| Ac-PVQET-NH2 [AcPVQET-NH2] | – | 90 | – |
